Experimental data published in patent publication US20070231333A1, “ANTI-5T4 ANTIBODIES AND USES THEREOF” (Wyeth, priority 2006, published 2007).

Columns and labels:
human 5T4 antigen [1] = target: T1, human 5T4 antigen (Homo sapiens, UniProt Q13641); assay: BIACORE analysis of antibody binding to human 5T4 antigen immobilized on a CM5 chip; details: murine antibodies, Table 3
T1 sequence (Q13641 32-420): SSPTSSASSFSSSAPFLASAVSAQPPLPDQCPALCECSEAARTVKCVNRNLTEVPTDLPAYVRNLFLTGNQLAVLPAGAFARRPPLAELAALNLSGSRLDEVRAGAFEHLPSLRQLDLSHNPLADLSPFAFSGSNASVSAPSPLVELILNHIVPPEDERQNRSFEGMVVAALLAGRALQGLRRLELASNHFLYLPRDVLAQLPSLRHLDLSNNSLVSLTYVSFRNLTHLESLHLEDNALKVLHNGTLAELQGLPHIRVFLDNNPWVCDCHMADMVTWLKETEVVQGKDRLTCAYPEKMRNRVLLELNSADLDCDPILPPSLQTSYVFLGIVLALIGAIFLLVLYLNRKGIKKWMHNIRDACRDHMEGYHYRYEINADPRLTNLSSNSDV
Protocol: To assess the binding specificity and affinity of the A1, A2, and A3 antibodies, BIACORE® analysis was performed using human 5T4 antigen immobilized on a CM5 chip. BIACORE® technology utilizes changes in the refractive index at the surface layer upon binding of the antibody to the 5T4 antigen immobilized on the layer. Binding is detected by surface plasmon resonance (SPR) of laser light refracting from the surface. Analysis of the signal kinetics on rate and off rate allows discrimination between non-specific and specific interactions. The H8 anti-5T4 antibody was used as a control. H8 is a hybridoma-generated monoclonal mouse IgG1 antibody described in PCT International Publication No. WO 98/55607 and in Forsberg et al. (1997) J. Biol. Chem. 272(19):[…].
To assess the binding specificity and affinity of the chimeric and humanized H8, A1, A2, and A3 antibodies, BIACORE® analysis was performed using human 5T4 antigen immobilized on a CM5 chip. See Example 2.

[2] = tested on: black-tailed marmoset 5T4 ectodomain Fc; assay: Epitope mapping ELISA, 5T4 ectodomain Fc fusions; type: binding; set-up: key: +: binding; −: no binding; +/−: partial binding
Protocol: (§1) To identify the epitopes to which each of the A1, A2, A3, and H8 antibodies bind, ELISA assays were performed using (1) 5T4 ectodomain Fc constructs with deleted or mutated sequences, and (2) 5T4 chimera constructs transiently expressed in COS-1 cells. The ectodomain includes the amino-terminal region, two leucine-rich repeats, and the intervening hydrophilic region. Fusion proteins containing a 5T4 ectodomain and a Fc constant regions from human IgG1 were prepared using mouse 5T4 (amino acids 1-361), rat 5T4 (amino acids 1-361), cynomologous monkey 5T4 (amino acids 1-355), chimpanzee 5T4 (amino acids 1-355), and black-tailed marmoset (amino acids 1-355). The 5T4 chimera constructs are depicted in FIG. 5. The binding results are summarized in Table 5, which indicates specific binding, partial binding, or lack of binding, by each of the H8, A1, A2, and A3 antibodies.

[3] = target: T2, cynomologous monkey 5T4 ectodomain Fc (Macaca fascicularis, UniProt Q4R8Y9, G135A/G313E/S41F); assay: Epitope mapping ELISA, 5T4 ectodomain Fc fusions; type: binding; set-up: key: +: binding; −: no binding; +/−: partial binding
T2 construct: cynomologous monkey 5T4 (amino acids 1-355); made in house; host or cells: COS-1 cells (transient)
T2 sequence (Q4R8Y9 35-355 S41F/G135A/G313E): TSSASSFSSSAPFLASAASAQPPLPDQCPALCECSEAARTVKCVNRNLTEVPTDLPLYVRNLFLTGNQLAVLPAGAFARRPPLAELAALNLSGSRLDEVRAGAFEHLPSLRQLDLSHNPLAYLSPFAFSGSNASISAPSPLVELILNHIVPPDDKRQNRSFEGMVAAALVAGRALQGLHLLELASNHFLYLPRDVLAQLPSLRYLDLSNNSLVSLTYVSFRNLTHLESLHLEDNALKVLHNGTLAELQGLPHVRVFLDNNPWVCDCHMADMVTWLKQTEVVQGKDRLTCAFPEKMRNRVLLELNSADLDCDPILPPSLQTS
Protocol: as §1

mouse 5T4 ectodomain Fc = target: T3, mouse 5T4 ectodomain Fc (Mus musculus, UniProt Q9Z0L0); assay: Epitope mapping ELISA, 5T4 ectodomain Fc fusions; type: binding; set-up: key: +: binding; −: no binding; +/−: partial binding
T3 construct: mouse 5T4 (amino acids 1-361); made in house; host or cells: COS-1 cells (transient)
T3 sequence (Q9Z0L0 32-361): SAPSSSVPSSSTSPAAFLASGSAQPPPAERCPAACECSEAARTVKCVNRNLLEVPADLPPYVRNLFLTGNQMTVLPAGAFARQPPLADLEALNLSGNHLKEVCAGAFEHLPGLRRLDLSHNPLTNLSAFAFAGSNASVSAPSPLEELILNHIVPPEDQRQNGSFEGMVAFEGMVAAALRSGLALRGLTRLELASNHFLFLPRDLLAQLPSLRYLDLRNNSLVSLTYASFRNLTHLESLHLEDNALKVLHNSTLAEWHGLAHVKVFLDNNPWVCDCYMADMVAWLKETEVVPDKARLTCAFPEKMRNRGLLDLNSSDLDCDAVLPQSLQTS
Protocol: as §1

human 5T4 antigen [4] = target: T1, human 5T4 antigen; assay: BIACORE competition assay: second antibody after saturation with first antibody; type: binding
Protocol: Epitope mapping of the H8, A1, A2, and A3 antibodies was also performed using BIACORE® using a CM5 chip with bound human 5T4 antigen. The chip was saturated with H8, A1, A2, or A3 antibody, and a first response was measured. The chip was then saturated with a second antibody from among the H8, A1, A2, and A3 antibodies, and a second response was measured. For multiple experiments, the chip was regenerated by dissociation of the bound antibodies in 10 mM glycine, pH 1.5, followed by a buffer wash. The percentages shown are the response units measured upon binding by a second antibody directly to the CM5 chip divided by the response units measured upon binding of the second antibody to a CM5 chip saturated with a first antibody.
The epitopes bound by the H8 and A3 antibodies are sterically close to each other such that the rate of association with antigen is decreased when binding of H8 is assayed in the presence of A3, and vice versa. Similar results were obtained using the chimeric and humanized H8, A1, A2, and A3 antibodies, which were prepared as described in Example 7 herein below.

Chain of black-tailed marmoset 5T4 ectodomain Fc (as listed by the source): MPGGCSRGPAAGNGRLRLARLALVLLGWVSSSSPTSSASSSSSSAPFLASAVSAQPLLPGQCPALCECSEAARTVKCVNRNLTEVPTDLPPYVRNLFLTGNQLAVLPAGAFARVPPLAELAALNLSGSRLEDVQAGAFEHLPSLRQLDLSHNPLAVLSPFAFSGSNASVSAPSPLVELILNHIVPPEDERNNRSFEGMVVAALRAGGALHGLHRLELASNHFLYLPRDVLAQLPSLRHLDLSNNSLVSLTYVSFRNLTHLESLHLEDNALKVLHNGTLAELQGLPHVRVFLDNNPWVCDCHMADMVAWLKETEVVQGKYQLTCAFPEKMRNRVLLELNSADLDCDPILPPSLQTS

B1: A2: murine anti-5T4 monoclonal antibody (IgG2b heavy chain); VH residues 19-135 of SEQ ID NO:6, VL residues 23-130 of SEQ ID NO:8 (antibody, listed as Mus musculus, V domains shown)
VH: MEWRIFLFILSGTAGVHSQVQLQQSRPELVKPGASVKMSCKASGYTFTDYVISWVKQRTGQGLEWIGEIYPGSNSIYYNEKFKGRATLTADKSSSTAYMQLSSLTSEDSAVYFCAMGGNYGFDYWGQGTTLTVSS
VL: MDFQVQIFSFLLISASVIMSRGQIVLTQSPAIMSASLGERVTLTCTASSSVNSNYLHWYQQKPGSSPKLWIYSTSNLASGVPARFSGSGSGTSYSLTISSMEAEDAATYYCHQYHRSPLTFGAGTKLELK
modifications: (1)..(18) leader sequence; (19)..(135) heavy chain variable region; (44)..(53) CDR1; (68)..(84) CDR2; (117)..(124) CDR3; (1)..(22) leader sequence; (23)..(130) light chain variable region; (46)..(56) CDR1; (73)..(79) CDR2; (112)..(120) CDR3
Human 5T4 antigen [1]
  KA: 6.5e+07 M⁻¹
  ka: 56000 M⁻¹ s⁻¹
  kd: 0.00087 s⁻¹
[2]
  binding to 5T4 antigen construct: +
[3]
  binding to 5T4 antigen construct: +
Mouse 5T4 ectodomain Fc
  binding to 5T4 antigen construct: −
Human 5T4 antigen [4]; 1st antibody A1
  Percentage Response of Second Antibody Following Saturation With First Antibody: 98%
Human 5T4 antigen [4]; 1st antibody A3
  Percentage Response of Second Antibody Following Saturation With First Antibody: 94%
